Patent publication US20040048311A1

What was measured:
38C13 IgM [1] = assay: antibody microarray on FAST slide, purified 38C13 IgM, detection with goat anti-mouse IgM HRP, chemiluminescence
38C13 IgM [2] = assay: antibody microarray on FAST slide, 38C13 cell extract at 1:2000 dilution, detection with goat anti-mouse IgM HRP, chemiluminescence

lowest IgM concentration giving signal (38C13 IgM [1]): 0.1 µg/mL
lowest spotted S1C5 concentration giving signal (38C13 IgM [1]): 25 µg/mL
lowest printed S1C5 concentration giving signal (38C13 IgM [2]): 50 µg/mL
Substance: S1C5 anti-idiotype monoclonal antibody
